Results from patent US20260209363A1 (Chugai, published 2026).
One block for each binder: values may come before it.

Columns and labels:
[1] = molecular target: T1, human soluble IL-6R (human, UniProt P08887 20-357, limits assumed); assay: SPR (Biacore T200), antibody captured on Protein G, human IL-6R as analyte, 37 degrees C, no albumin
T1 construct: Soluble form; also called sIL6R; Human IL-6R
T1 sequence (looked up): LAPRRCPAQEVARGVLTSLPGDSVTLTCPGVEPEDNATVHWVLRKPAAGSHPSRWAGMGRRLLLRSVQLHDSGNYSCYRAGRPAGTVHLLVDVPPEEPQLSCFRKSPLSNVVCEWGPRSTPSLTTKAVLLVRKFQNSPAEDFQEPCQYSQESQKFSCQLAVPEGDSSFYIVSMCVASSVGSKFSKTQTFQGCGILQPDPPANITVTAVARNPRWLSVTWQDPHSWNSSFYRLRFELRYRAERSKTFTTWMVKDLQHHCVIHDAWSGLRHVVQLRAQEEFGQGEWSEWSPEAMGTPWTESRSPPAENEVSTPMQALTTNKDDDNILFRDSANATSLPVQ
Experimental: Binding activities of the produced albumin switch molecules against human IL-6R were evaluated using Biacore T200 (Cytiva). As the running buffer, 50 mM Na Phosphate (pH 7.4), 150 mM NaCl, 0.05% Tween20 was used, and the evaluation was performed at 37 degrees C. First, Protein G (CALBIOCHEM) was used as a ligand-capturing molecule. Protein G (CALBIOCHEM) was solid-phased on a Series S Sensor Chip CM4 (Cytiva) using an Amine Coupling Kit (Cytiva). Antibody solution prepared using the running buffer was allowed to interact with this CM4 sensor chip to capture approximately 200 RU of the antibody. Human IL-6R used in the present measurement was prepared by an approach described in WO2018097307 (Example 3-2). Human IL-6R was diluted to 0, 100, and 400 nM with the running buffer, and allowed to bind to the captured antibody. The chip was regenerated using 3 M MgCl₂, and measurements were performed by repeatedly capturing the antibodies. Dissociation constant (KD) of each antibody for human IL-6R was calculated using Biacore T200 Evaluation Software 2.0. Specifically, the association rate constant ka (L/mol/s) and the dissociation rate constant kd (1/s) were calculated by global fitting of the sensorgrams obtained by measurement with the 1:1 Langmuir binding model, and the dissociation constant KD (mol/L) was calculated from these values.

[2] = molecular target: T1, human soluble IL-6R; assay: in vivo KD in mouse plasma (albumin present), from total antibody, free and bound sIL6R 5 min after sIL6R; antibody 0.2 mg/kg IV
Experimental: (§1) Next, free sIL6R in plasma was measured. The concentration of free sIL6R in plasma was measured on a fully automated ELISA system (Gyrolab xP workstation). First, sIL6R prepared at 23.4, 46.9, 93.8, 188, 375, 750, and 1500 ng/mL using a Protein-Free (PBS) Blocking Buffer (Thermo Scientific) was used as solutions for preparing the calibration curve. Mouse plasma samples were used in the measurements without diluting them. A solution of biotin-labeled H54 diluted to 10 micro g/mL using a Protein-Free (PBS) Blocking Buffer was used as a solution of the sIL6R-capturing molecule. Alexa Fluor (registered trademark) 647-labeled anti-human IL-6R antibody (R&D Systems) diluted to 1 micro g/mL using a Protein-Free (PBS) Blocking Buffer was used as a solution of the human IL-6R-detection molecule. PBS (pH 7.4) containing 0.05% TWEEN was used as a washing solution. The calibration curve solutions, mouse plasma samples, sIL6R-capturing molecule solution, sIL6R-detection molecule solution, and the washing solution were placed onto a PCR plate, and then the PCR plate was sealed with a plate sealer. After the PCR plate and the Bioaffy 200 disc were placed in the Gyrolab xP workstation, measurements were taken. Using the data processed by the Gyros Evaluater 3.6.2.30 software and the calibration curve concentrations, the concentration of free sIL6R in plasma was calculated by logistic regression using the XLfit 5.5.0.5 software.
Additionally, bound sIL6R in plasma was measured. The concentration of bound sIL6R in plasma was measured on an electrospray ionization mass spectrometer connected to a high-performance liquid chromatography (LC/ESI-MS/MS). First, H54//IC17 and sIL6R were mixed, and solutions for preparing the calibration curve of bound sIL6R were prepared at theoretical plasma concentrations of 0.0468, 0.467, 4.60, and 20.1 nmol/mL. […]

[3] = molecular target: T2, mouse albumin (mouse, UniProt P07724 25-608); assay: SPR (Biacore T200), antibody captured by anti-human Fc antibody, mouse albumin as analyte, 25 degrees C
T2 construct: also called recombinant mouse Albumin; mouse serum albumin
Experimental: Binding activities of the produced antibodies against mouse albumin were evaluated using Biacore T200 (Cytiva).
As the running buffer, 50 mM Na Phosphate (pH 7.4), 150 mM NaCl, 0.05% Tween20 was used, and the evaluation was performed at 25 degrees C. First, anti-human Fc antibody (Cytiva) was used as a ligand-capturing molecule. Anti-human Fc antibody (Cytiva) was solid-phased on a Series S Sensor Chip CM4 (Cytiva) using an Amine Coupling Kit (Cytiva). Antibody solution prepared using the running buffer was allowed to interact with this CM4 sensor chip to capture approximately 120 RU of the antibody. Mouse albumin (Bioscience) was diluted to 0 and 300 nM with the running buffer and allowed to bind to the captured antibody. The chip was regenerated using 3 M MgCl₂, and measurements were performed by repeatedly capturing the antibodies. Dissociation constant (KD) of each antibody for mouse albumin was calculated using Biacore T200 Evaluation Software 2.0. Specifically, the association rate constant ka (L/mol/s) and the dissociation rate constant kd (1/s) were calculated by global fitting of the sensorgrams obtained by measurement with the 1:1 Langmuir binding model, and the dissociation constant KD (mol/L) was calculated from these values.

[4] = molecular target: T1, human soluble IL-6R; assay: in vivo KD in mouse plasma (albumin present), from total antibody, free and bound sIL6R 5 min after sIL6R; antibody 1 mg/kg IV
Experimental: as §1
Additionally, bound sIL6R in plasma was measured. The concentration of bound sIL6R in plasma was measured on an electrospray ionization mass spectrometer connected to a high-performance liquid chromatography (LC/ESI-MS/MS). First, H54//IC17 and sIL6R were mixed, and solutions for preparing the calibration curve of bound sIL6R were prepared at theoretical plasma concentrations of 0.0468, 0.467, 4.60, and 20.1 nmol/mL. The solutions for preparing the calibration curve and 1 or 2 micro L of a plasma sample were added to 75 or 150 micro g of magnetic beads (Magnosphere MS300/Carboxyl, JSR) to which anti-delta GK antibodies were solid-phased, and this was shaken at 25 degrees C. for one hour.

[5] = molecular target: T1, human soluble IL-6R; assay: Gyrolab xP immunoassay of antibody-antigen complex in C57BL/6J mouse plasma (albumin present), 1 nM antibody, 4 nM antigen

Kd [1]: 2.65 nM
koff [1]: 0.00118 s⁻¹
kon [1]: 445000 M⁻¹ s⁻¹
Kd [2]: 49.1 nM
Kd [3]: 11.6 nM
koff [3]: 0.00131 s⁻¹
kon [3]: 113000 M⁻¹ s⁻¹
Kd [4]: 57.3 nM
B1: ABD094(L)-H54//IC17 (bispecific antibody, human IgG1, kappa)
heavy 1: QVQLQESGPGLVKPSETLSLTCAVSGYSISDDQAWSWVRQPPGEGLEWIGYISYSGITNYNPSLKGRVTISRDTSKNQFSLKLSSVTAADTAAYYCARSLARTTAMDYWGEGTLVTVSSASTKGPSVFPLAPSSKSTSGGTAALGCLVEDYFPEPVTVSWNSGALTSGVHTFPAVLQSSGLYSLSSVVTVPSSSLGTQTYICNVNHKPSNTKVDERVEPKSCDKTHTCPPCPAPELRRGPSVFLFPPKPKDTLMISRTPEVTCVVVDVSHEDPEVKFNWYVDGVEVHNAKTKPREEQYNSTYRVVSVLTVLHQDWLNGKEYKCKVSNKALPAPIEKTISKAKGQPREPQVCTLPPSREEMTKNQVSLSCAVKGFYPSDIAVEWESNGQPENNYKTTPPVLDSDGSFFLVSKLTVDKSRWQQGNVFSCSVMHEALHNHYTQKSLSLSP
light 1: LAEAKEAANAELDSYGVSDFYKRLIDKAKTVEGVEALKDAILAALPDIQMTQSPSSLSASVGDSVTITCQASQDISSYLNWYQQKPGKAPELLIYYGSELHSGVPSRFSGSGSGTDFTFTISSLEAEDAATYYCQQGNSLPYTFGQGTKVEIERTVAAPSVFIFPPSDRKLKSGTASVVCLLNNFYPREAKVQWKVDNALQSGNSQESVTEQDSKDSTYSLSSTLTLSKADYEKHKVYACEVTHQGLSSPVTKSFNRGEC
heavy 2: not shown
light 2: QVQLQQSGPQLVRPGASVKISCKASGYSFTSYWMHWVNQRPGQGLEWIGMIDPSYSETRLNQKFKDKATLTVDKSSSTAYMQLSSPTSEDSAVYYCALYGNYFDYWGQGTTLTVSSASVAAPSVFIFPPSDEQLKSGTASVVCLLNNFYPREAKVQWKVDNALQSGNSQESVTEQDSKDSTYSLSSTLTLSKADYEKHKVYACEVTHQGLSSPVTKSFNRGEC

decrease in the signal derived from the complex, compared to H54//IC17 [5]: 55%
B2: ABD094(H/L).N02-H54//IC17 (bispecific antibody, human IgG1, kappa)
heavy 1: LAEAKEAANAELDSYGVSDFYKRLIDKAKTVEGVEALKDAILAALPGGGGSQVQLQESGPGLVKPSETLSLTCAVSGYSISDDQAWSWVRQPPGEGLEWIGYISYSGITNYNPSLKGRVTISRDTSKNQFSLKLSSVTAADTAAYYCARSLARTTAMDYWGEGTLVTVSSASTKGPSVFPLAPSSKSTSGGTAALGCLVEDYFPEPVTVSWNSGALTSGVHTFPAVLQSSGLYSLSSVVTVPSSSLGTQTYICNVNHKPSNTKVDERVEPKSCDKTHTCPPCPAPELRRGPSVFLFPPKPKDTLMISRTPEVTCVVVDVSHEDPEVKFNWYVDGVEVHNAKTKPREEQYNSTYRVVSVLTVLHQDWLNGKEYKCKVSNKALPAPIEKTISKAKGQPREPQVCTLPPSREEMTKNQVSLSCAVKGFYPSDIAVEWESNGQPENNYKTTPPVLDSDGSFFLVSKLTVDKSRWQQGNVFSCSVMHEALHNHYTQKSLSLSP
light 1: LAEAKEAANAELDSYGVSDFYKRLIDKAKTVEGVEALKDAILAALPGGGGSDIQMTQSPSSLSASVGDSVTITCQASQDISSYLNWYQQKPGKAPELLIYYGSELHSGVPSRFSGSGSGTDFTFTISSLEAEDAATYYCQQGNSLPYTFGQGTKVEIERTVAAPSVFIFPPSDRKLKSGTASVVCLLNNFYPREAKVQWKVDNALQSGNSQESVTEQDSKDSTYSLSSTLTLSKADYEKHKVYACEVTHQGLSSPVTKSFNRGEC
heavy 2: not shown
light 2: B1 light 2

decrease in the signal derived from the complex, compared to H54//IC17 [5]: 95%
B3: ABD094(H/L).N10-H54//IC17 (bispecific antibody, human IgG1, kappa)
heavy 1: LAEAKEAANAELDSYGVSDFYKRLIDKAKTVEGVEALKDAILAALPGQVQLQESGPGLVKPSETLSLTCAVSGYSISDDQAWSWVRQPPGEGLEWIGYISYSGITNYNPSLKGRVTISRDTSKNQFSLKLSSVTAADTAAYYCARSLARTTAMDYWGEGTLVTVSSASTKGPSVFPLAPSSKSTSGGTAALGCLVEDYFPEPVTVSWNSGALTSGVHTFPAVLQSSGLYSLSSVVTVPSSSLGTQTYICNVNHKPSNTKVDERVEPKSCDKTHTCPPCPAPELRRGPSVFLFPPKPKDTLMISRTPEVTCVVVDVSHEDPEVKFNWYVDGVEVHNAKTKPREEQYNSTYRVVSVLTVLHQDWLNGKEYKCKVSNKALPAPIEKTISKAKGQPREPQVCTLPPSREEMTKNQVSLSCAVKGFYPSDIAVEWESNGQPENNYKTTPPVLDSDGSFFLVSKLTVDKSRWQQGNVFSCSVMHEALHNHYTQKSLSLSP
light 1: LAEAKEAANAELDSYGVSDFYKRLIDKAKTVEGVEALKDAILAALPGDIQMTQSPSSLSASVGDSVTITCQASQDISSYLNWYQQKPGKAPELLIYYGSELHSGVPSRFSGSGSGTDFTFTISSLEAEDAATYYCQQGNSLPYTFGQGTKVEIERTVAAPSVFIFPPSDRKLKSGTASVVCLLNNFYPREAKVQWKVDNALQSGNSQESVTEQDSKDSTYSLSSTLTLSKADYEKHKVYACEVTHQGLSSPVTKSFNRGEC
heavy 2: not shown
light 2: B1 light 2
notes: ABD094 linked via N10 linker (G) at VH and VL N-termini of the IL-6R arm; also called ABD094(H/L).NTO-H54//IC17; ABD094(H/L).NO-H54//IC17
